From article PMC8639819

Key:
Western blot = details: glycan lost; control: E14 cells
[1] = immunofluorescence confocal microscopy; details: glycan lost; control: E14 cells
[2] = Western blot, stable 2TS22C cells; details: glycan lost; control: WT FLAG-Sox2
[3] = 3D z-stack immunofluorescence, 2TS22C cells; details: glycan lost; control: WT FLAG-Sox2

Sox2: T258A, sequence (chain, as listed by the source T258A): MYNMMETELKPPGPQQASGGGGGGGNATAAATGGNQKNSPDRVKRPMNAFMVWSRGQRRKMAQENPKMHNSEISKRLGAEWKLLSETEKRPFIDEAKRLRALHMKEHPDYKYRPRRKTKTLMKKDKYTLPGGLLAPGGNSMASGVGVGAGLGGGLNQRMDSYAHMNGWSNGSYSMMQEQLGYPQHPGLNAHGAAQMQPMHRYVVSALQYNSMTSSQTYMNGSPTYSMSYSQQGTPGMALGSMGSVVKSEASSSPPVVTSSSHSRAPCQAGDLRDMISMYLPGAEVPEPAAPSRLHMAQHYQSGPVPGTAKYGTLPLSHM
Sox2: E14-Sox2TA/WT, sequence (chain, as listed by the source): as the sequence (chain, as listed by the source T258A) above
Sox2: S248A/T258A, sequence (chain, as listed by the source S248A T258A): as the sequence (chain, as listed by the source T258A) above
Sox2: S248A, sequence (chain, as listed by the source S248A): as the sequence (chain, as listed by the source T258A) above

Row | Substance | expression_or_secretion (Western blot) | localisation_or_trafficking [1] | expression_or_secretion [2] | localisation_or_trafficking [3]
1 | Sox2: E14-Sox2TA/WT | no change | no change |  | 
2 | Sox2: S248A |  |  | no change | 
3 | Sox2: S248A/T258A |  |  | no change | 
4 | Sox2: T258A |  |  | no change | no change
